Consider two substances from publication PMC12697862.

The target in this test is IP3R1 channel fragment E. Kind of test: co-IP (IP: Flag, immunoblot for Myc) with band quantification. Particulars: LV-GRP75-Flag(mutant) with IP3R1E-Myc; n = 5; means ± SEM; read off a plot. On the technique in general: A western blot detects proteins with antibodies after separation by electrophoresis.

With “GRP75, transfected for co-IP (from UniProt P38647) K567R; K612R”, the response (relative level of Myc/Flag (IP group)) is 1.

“GRP75, transfected for co-IP (from UniProt P38647) K567Q; K612Q” returned a response (relative level of Myc/Flag (IP group)) of 0.47.
